pKd: −log10 of the molar value.
Experiments:
[1] = target: human IR L1-CR-L2/α-CT domains (human) (UniProt P06213); assay: ITC
[2] = target: human IR FnIII-1 domain (residues 460-596; C468A, C524A, DFR496-498AAA) (human) (UniProt P06213); assay: ITC

pKd [1]: 7.05
pKd [2]: 6.12
Substance: insulin WT (ΔB30; desB30 human insulin) (ligand)
